Entries after “also recorded” stand apart in the source; their conditions may differ.
B1: Activin-A: human recombinant Activin-A, 20 ng/ml (protein, UniProt P08476 311-426, looked up)
Inhibin beta A chain: GLECDGKVNICCKKQFFVSFKDIGWNDWIIAPSGYHANYCEGECPSHIAGTSGSSLSFHSTVINHYRMRGHSPFANLKSCCVPTKLRPMSMLYYDDGQNIIKKDIQNMIVEECGCS
B2: BMP-4: human recombinant Bone Morphogenic Protein 4, 10 ng/ml (protein, UniProt P12644 293-408, looked up)
Bone morphogenetic protein 4: SPKHHSQRARKKNKNCRRHSLYVDFSDVGWNDWIVAPPGYQAFYCHGDCPFPLADHLNSTNHAIVQTLVNSVNSSIPKACCVPTELSAISMLYLDEYDKVVLKNYQEMVVEGCGCR

Columns and labels:
[1] = tested on: human differentiated embryonic (DE) cells; assay: RT-PCR of cell specific genes in DE cells treated with growth factors; format: cell-based; conditions: for overall induction or repression of cell specific expression (FIG. 3B): at least three experiments
Protocol: (§1) Cell Culture: Human embryonic stem cells were grown on a feeder layer of mouse embryonic fibroblasts (MEF) and then transferred to gelatin coated plates and cultured further to reduce the number of murine cells in the culture. Differentiation into embryoid bodies (EBs) was initiated by transfer to Petri dishes, where the embryoid bodies remained in suspension. After 5 days, the EBs become dissociated and cells are cultured as a monolayer forming differentiated embryonic (DE) cells. This protocol allows for initial differentiation of the human embryonic stem cells as aggregates and further differentiation as a monolayer wherein cells can be exposed to exogenous growth factors. The DE cells were cultured for 10 days in the presence of 8 different growth factors: NGF, bFGF, Activin-A, TGFβ1, HGF, EGF, BMP4 and retinoic acid (RA) (FIG. 1A).
To induce formation of EBs, ES cells were transferred using trypsin/EDTA (0.1%/l mM) to plastic Petri dishes to allow their aggregation and prevent adherence to the plate. Human EBs were grown in the same culture medium, except that it lacked leukemia inhibitory factor (LIF) and bFGF. The EBs were cultured for 5 days and then dissociated and plated on tissue culture plates coated with 50 μg/ml Fibronectin (Boehringer Mannheim). The cells were grown in the presence of the following human recombinant growth factors used singly or in groups: Basic Fibroblast Growth Factor (bFGF) (Swoboda et al, 1999)—10 ng/ml (Gibco BRL); Transforming Growth Factor Beta 1 (TGFβ1) (Swoboda et al, 1999)—2 ng/ml (R&D Systems); Activin-A (Slager et al, 1993)—20 ng/ml (R&D Systems); Bone Morphogenic Protein 4 (BMP-4) (Slager et al, 1993; Bain et al, 1996)—10 ng/ml (R&D Systems); Hepatocyte Growth Factor (HGF)/Scatter Factor (Doetsch et al, 1999)—20 ng/ml (R&D Systems); Epidermal Growth Factor (EGF) (Doetsch et al, 1999)—100 ng/ml (R&D Systems); βNerve Growth Factor (NGF) (Johansson et al, 1999)—100 ng/ml (R&D Systems); Retinoic acid (RA) (Deacon et al, 1998; Peschanski et al, 1995)—1 μM (Sigma). Under these conditions the differentiated embryonic (DE) cells were grown for another 10 days. All of the examined growth factors are absent from the KnockOut™ serum replacement in which the embryonic cells were cultured.
RT-PCR Analysis: Total RNA was extracted using Atlas™ Pure Total RNA Kit (Clontech). cDNA was synthesized from 1 μg total RNA, using Atlas™ RT-for-PCR Kit (Clontech). cDNA samples were subjected to PCR amplification with DNA primers selective for the human genes. For each gene, the DNA primers were derived from different exons to ensure that the PCR product represents the specific mRNA species and not genomic DNA. PCR was performed using the Clontech Advantaq+™ RT-PCR kit and using a two-step cycle at 68° C.
Primers were synthesized for the following genes: neurofilament heavy chain (NF-H), phosphoprotein enriched in astrocytes (PEA-15), Keratin, Dopamine β Hydroxylase (DβH), Follicular Stimulating Hormone (FSH), Enolase, Myosin light polypeptide2 (myosin), Cartilage Matrix Protein (CMP), Renin, Kallikrein, Wilms Tumor 1 (WTI), β-Globin (β-Glob), δ-Globin (δ-Glob), Cardiac Actin (cACT), Albumin, α1 anti-trypsin (α1 AT), Lipase, Amylase, PDX-1, Insulin, Glucagon, Surfactant, Parathyroid Hormone (PTH), α-feto protein (αFP), Retinoic Acid Receptor type alpha (RAR), Hepatocyte Growth Factor Receptor (c-Met), Nerve Growth Factor Receptor (NGFR), Fibroblast Growth Factor Receptor type I (FGFRI), Transforming Growth Factor Receptor type II (TGFRII), Epidermal Growth Factor Receptor type (EGFR), Activin Receptor type IIB (ACTRIIB), Bone Morphogenic Protein 4 Receptor type II (BMP4RII), Octamer Binding Protein 4 (Oct 4), Glyceraldehyde 3-phosphate dehydrogenase (G3PD), β-Actin. Also incorporated by reference, see http://www.ls.huji.ac.il/˜nissimb/factors_es/primers.html-ente.
The differentiation induced by growth factors was further examined by determining the expression of a panel of 24 cell specific genes using RT-PCR. […]

[2] = tested on: human differentiated embryonic (DE) cells; assay: Morphology of DE cells cultured with growth factors; format: cell-based; conditions: several days on plastic, continuous exposure to growth factor (FIG. 1B)
Protocol: as §1
To induce formation of EBs, ES cells were transferred using trypsin/EDTA (0.1%/l mM) to plastic Petri dishes to allow their aggregation and prevent adherence to the plate. Human EBs were grown in the same culture medium, except that it lacked leukemia inhibitory factor (LIF) and bFGF. The EBs were cultured for 5 days and then dissociated and plated on tissue culture plates coated with 50 μg/ml Fibronectin (Boehringer Mannheim). […]

[3] = vs control without growth factor (FIG. 4)

Molecule | overall induction or repression of cell specific expression (FIG. 3B) [1] | blood formation [1, 3] | differentiation into Mullerian duct cells [1, 3] | differentiation into chondrocytes [1, 3] | differentiation into ectodermal cells [1, 3] | differentiation into endodermal cells [1, 3] | differentiation into kidney cells [1, 3] | differentiation into mesodermal cells [1, 3] | cell morphology found in treated culture [2] | differentiation into skin cells [1, 3]
B1 | mostly repress or fail to direct differentiation of as many cell types | inhibit | inhibit | inhibit | inhibit | inhibit | inhibit | allow differentiation into selected mesodermal cells | muscle like syncytiums | –
B2 | mostly repress or fail to direct differentiation of as many cell types | reduced | – | reduced | allow or induce | – | – | allow or induce; also recorded: inhibits differentiation of all other mesodermal cells examined | large round cells | apparently permitting skin cells to form

Reference: patent US7772001B2, “Directed differentiation of embryonic stem cells into an endoderm cell” (Yissum Research Development Company Of the Hebrew …, priority 2000, dated 2010)
